From patent publication US10087225B2, “Formulation of MK2 inhibitor peptides” (MOERAE MATRIX, INC., priority 2015, dated 2018) come the findings set out here.

Assay in all cases: Kinase Profiling Assay
Assay [1] deals with T1, SGK(h) (Homo sapiens, UniProt O00141).
T1 sequence (O00141 1-431): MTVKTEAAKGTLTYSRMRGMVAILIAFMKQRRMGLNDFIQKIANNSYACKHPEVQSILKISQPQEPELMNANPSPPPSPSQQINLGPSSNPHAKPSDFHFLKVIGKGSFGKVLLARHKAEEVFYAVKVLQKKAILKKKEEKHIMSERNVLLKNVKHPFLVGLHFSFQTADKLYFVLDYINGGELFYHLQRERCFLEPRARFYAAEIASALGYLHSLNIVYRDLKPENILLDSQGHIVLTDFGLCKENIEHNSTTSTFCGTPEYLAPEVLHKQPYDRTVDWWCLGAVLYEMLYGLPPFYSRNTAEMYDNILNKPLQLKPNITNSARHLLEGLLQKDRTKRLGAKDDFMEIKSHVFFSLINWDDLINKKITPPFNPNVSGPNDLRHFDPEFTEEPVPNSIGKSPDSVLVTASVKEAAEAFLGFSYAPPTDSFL
It is filed as biochemical.

For assay [2], the target named is T2, MST2(h) (Homo sapiens, UniProt Q13188).
T2 sequence (Q13188 1-491): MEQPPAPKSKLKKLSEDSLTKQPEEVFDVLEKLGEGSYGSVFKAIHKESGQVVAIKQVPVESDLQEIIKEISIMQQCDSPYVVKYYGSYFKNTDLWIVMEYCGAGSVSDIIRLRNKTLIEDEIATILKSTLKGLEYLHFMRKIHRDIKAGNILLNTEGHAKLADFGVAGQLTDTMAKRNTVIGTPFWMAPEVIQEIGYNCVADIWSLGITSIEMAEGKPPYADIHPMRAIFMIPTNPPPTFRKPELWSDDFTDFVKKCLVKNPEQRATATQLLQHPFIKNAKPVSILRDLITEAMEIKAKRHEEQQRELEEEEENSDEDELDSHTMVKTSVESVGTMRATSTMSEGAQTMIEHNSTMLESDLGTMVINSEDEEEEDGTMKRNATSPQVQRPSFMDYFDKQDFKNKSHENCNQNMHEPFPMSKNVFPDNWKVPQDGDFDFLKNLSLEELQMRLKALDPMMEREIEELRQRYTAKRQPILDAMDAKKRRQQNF
Type of assay: biochemical.

Assay [3] addresses EGFR(T790M,L858R)(h) (Homo sapiens, UniProt P00533, L858R/T790M). It is filed as biochemical. The note with it: 100 μM.
In assay [4] the target is PKCγ(h) (Homo sapiens, UniProt P05129). It is filed as biochemical. The note with it: 100 μM.
Assay [5] has as its target T3, NEK2(h) (Homo sapiens, UniProt P51955).
T3 sequence (P51955 1-445): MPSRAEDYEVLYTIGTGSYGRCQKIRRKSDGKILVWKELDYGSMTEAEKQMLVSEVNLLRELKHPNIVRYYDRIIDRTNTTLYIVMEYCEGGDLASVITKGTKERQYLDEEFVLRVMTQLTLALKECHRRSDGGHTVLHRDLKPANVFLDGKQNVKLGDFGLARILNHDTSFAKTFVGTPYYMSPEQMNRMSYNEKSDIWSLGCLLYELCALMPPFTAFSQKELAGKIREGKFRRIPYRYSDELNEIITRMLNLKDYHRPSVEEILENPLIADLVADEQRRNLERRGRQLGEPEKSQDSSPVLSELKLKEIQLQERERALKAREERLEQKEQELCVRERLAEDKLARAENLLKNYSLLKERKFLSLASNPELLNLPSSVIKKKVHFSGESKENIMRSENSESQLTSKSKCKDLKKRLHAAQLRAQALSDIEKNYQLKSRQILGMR
It is filed as biochemical. The note with it: 100 μM.

The target in assay [6] is TLK2(h) (Homo sapiens, UniProt Q86UE8). It is filed as biochemical. The note with it: 100 μM.
Assay [7] concerns p70S6K(h). Type of assay: biochemical, human. The note with it: 100 μM.
Assay [8] addresses AMPKa2(h) (Homo sapiens, UniProt P54646). Type of assay: biochemical. The note with it: 100 μM.
The target in assay [9] is AMPKa1(h) (Homo sapiens, UniProt Q13131). Type of assay: biochemical. The note with it: 100 μM.
Assay [10] has as its target PKCβII(h) (Homo sapiens, UniProt P05771). Type of assay: biochemical. The note with it: 100 μM.
Assay [11] deals with T4, MST1(h) (Homo sapiens, UniProt Q13043).
T4 sequence (Q13043 1-487): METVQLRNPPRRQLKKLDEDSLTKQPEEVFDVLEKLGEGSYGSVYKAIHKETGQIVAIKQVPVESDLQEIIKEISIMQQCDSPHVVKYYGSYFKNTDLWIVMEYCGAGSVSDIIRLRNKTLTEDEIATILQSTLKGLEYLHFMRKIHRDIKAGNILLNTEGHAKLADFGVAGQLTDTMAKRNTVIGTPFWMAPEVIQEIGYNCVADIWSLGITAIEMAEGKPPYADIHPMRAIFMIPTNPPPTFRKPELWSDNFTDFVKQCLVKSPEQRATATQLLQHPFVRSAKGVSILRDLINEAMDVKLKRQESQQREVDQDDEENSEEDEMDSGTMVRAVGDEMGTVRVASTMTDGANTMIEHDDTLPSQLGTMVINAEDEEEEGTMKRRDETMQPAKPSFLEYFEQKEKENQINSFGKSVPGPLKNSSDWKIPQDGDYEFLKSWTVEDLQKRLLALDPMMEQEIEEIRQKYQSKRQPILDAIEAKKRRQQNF
Type of assay: biochemical. The note with it: 100 μM.

Assay [12] concerns the target PKBα(h) (Homo sapiens, UniProt P31749). It is filed as biochemical. The note with it: 100 μM.
Assay [13] has as its target RIPK2(h) (Homo sapiens, UniProt O43353). It is filed as biochemical. The note with it: 100 μM.
Assay [14] deals with cKit(D816V)(h) (Homo sapiens, UniProt P10721, D816V). Type of assay: biochemical. The note with it: 100 μM.

Chain of RIPK2(h) (O43353 whole entry): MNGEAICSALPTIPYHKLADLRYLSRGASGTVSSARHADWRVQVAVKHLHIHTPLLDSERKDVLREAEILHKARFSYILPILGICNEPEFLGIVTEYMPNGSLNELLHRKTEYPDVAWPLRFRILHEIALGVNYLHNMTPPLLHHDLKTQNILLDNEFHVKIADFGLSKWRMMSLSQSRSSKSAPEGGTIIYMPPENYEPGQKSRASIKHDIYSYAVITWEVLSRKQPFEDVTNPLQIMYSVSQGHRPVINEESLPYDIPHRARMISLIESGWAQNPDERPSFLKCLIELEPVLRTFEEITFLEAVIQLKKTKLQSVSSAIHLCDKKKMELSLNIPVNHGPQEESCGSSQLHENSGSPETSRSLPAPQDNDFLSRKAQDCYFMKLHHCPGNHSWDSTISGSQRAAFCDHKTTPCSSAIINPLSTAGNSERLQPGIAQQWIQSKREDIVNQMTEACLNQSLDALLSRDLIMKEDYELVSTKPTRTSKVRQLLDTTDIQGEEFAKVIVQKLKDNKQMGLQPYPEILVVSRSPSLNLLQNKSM
Chain of AMPKa2(h) (P54646 whole entry): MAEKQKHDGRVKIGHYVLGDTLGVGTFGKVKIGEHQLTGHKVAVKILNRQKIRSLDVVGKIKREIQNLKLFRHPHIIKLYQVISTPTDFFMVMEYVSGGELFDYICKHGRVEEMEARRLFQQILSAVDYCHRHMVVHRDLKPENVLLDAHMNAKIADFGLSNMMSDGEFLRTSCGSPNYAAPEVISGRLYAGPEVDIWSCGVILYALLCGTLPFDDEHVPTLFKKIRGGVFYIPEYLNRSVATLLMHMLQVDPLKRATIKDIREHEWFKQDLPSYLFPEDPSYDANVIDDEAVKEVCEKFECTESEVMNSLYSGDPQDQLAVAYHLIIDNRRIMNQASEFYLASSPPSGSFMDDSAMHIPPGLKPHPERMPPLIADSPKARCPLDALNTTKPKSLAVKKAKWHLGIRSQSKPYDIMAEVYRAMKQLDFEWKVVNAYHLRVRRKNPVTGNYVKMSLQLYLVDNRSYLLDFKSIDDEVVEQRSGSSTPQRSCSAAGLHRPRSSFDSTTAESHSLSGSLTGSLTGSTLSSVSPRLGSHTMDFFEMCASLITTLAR
Chain of AMPKa2(h) (Q9Y478 whole entry partner): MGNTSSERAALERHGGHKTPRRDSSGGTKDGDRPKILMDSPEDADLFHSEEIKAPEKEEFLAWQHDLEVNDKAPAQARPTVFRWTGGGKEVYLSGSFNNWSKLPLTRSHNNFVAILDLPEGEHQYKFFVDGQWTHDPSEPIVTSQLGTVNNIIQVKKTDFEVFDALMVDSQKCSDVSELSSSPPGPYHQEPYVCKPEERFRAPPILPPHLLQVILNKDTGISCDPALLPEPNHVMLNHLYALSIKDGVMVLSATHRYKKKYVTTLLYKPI
Chain of AMPKa2(h) (P54619 whole entry partner): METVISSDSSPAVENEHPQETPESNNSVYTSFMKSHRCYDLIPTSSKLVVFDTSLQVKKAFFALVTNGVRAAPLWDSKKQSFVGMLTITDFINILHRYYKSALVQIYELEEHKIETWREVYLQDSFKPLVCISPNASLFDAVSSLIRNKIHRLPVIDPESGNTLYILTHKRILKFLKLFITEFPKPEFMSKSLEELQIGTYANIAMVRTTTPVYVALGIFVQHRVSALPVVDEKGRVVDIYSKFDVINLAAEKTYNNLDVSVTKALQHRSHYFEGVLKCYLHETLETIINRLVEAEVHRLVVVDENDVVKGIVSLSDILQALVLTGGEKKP
Chain of TLK2(h) (Q86UE8 whole entry): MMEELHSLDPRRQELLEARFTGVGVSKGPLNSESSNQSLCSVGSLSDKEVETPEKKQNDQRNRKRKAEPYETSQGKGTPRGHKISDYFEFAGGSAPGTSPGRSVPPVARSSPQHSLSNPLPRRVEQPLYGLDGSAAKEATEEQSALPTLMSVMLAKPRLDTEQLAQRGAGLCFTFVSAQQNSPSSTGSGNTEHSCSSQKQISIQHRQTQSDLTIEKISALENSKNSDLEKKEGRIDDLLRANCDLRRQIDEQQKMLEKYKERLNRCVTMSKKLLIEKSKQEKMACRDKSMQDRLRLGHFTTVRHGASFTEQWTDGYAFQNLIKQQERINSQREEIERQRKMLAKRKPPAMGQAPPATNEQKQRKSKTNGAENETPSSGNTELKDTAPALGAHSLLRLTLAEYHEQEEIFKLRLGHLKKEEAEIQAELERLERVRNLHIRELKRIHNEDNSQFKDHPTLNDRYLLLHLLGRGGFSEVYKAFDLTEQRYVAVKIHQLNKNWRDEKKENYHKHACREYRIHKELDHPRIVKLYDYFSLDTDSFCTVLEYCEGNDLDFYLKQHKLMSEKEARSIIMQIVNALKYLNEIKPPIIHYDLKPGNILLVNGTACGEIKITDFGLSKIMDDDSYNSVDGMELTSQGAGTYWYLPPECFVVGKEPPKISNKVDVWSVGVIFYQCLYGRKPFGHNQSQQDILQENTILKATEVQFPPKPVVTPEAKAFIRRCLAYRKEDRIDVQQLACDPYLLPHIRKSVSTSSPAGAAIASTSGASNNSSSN
Chain of PKBα(h) (P31749 whole entry): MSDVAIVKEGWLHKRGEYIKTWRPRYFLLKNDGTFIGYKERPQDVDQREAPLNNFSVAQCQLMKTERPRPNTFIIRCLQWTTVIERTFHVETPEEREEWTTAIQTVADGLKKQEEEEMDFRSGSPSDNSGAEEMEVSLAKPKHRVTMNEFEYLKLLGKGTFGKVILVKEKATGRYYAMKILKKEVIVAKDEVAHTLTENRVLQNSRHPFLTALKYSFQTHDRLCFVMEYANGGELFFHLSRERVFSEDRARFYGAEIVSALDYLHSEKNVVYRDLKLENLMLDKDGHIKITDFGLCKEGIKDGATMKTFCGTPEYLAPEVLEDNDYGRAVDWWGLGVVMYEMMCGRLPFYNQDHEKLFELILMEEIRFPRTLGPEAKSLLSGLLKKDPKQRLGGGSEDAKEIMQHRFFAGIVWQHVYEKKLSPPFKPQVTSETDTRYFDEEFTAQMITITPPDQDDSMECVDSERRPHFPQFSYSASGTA
Chain of PKCβII(h) (P05771 1-673 isoform P05771-2): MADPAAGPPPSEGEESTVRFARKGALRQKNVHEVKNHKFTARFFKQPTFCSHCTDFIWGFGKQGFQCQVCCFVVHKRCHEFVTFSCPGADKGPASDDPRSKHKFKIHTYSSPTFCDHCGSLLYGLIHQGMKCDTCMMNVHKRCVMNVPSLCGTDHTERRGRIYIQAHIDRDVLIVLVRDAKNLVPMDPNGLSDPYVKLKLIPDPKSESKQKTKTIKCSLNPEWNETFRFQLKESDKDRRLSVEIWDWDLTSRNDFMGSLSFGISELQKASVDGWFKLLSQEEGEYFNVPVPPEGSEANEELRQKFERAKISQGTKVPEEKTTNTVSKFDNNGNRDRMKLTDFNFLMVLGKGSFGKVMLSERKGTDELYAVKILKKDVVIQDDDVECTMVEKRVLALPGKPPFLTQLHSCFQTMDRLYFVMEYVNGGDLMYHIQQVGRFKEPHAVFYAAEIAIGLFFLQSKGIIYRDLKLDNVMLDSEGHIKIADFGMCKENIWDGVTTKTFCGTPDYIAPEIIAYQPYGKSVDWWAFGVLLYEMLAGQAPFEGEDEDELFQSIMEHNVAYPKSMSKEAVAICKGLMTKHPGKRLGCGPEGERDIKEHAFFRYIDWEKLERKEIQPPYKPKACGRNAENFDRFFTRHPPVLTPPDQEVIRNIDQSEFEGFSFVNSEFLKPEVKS
Chain of AMPKa1(h) (Q13131 whole entry): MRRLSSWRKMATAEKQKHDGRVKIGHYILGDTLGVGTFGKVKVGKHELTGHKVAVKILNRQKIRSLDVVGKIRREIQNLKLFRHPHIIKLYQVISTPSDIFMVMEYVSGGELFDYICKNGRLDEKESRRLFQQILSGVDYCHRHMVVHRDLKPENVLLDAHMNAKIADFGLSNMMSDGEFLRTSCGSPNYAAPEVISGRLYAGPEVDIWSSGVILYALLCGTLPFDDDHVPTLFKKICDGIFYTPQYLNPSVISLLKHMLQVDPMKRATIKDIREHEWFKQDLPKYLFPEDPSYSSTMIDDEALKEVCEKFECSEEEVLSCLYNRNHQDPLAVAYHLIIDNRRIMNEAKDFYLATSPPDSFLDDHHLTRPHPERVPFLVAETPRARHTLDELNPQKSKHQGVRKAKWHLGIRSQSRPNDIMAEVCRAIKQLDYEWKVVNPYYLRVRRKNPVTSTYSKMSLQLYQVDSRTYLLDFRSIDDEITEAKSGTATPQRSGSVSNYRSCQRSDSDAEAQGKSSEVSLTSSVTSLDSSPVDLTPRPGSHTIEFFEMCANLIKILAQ
Chain of AMPKa1(h) (Q9Y478 whole entry partner): as the sequence (Q9Y478 whole entry partner) above
Chain of AMPKa1(h) (P54619 whole entry partner): as the sequence (P54619 whole entry partner) above

With H-YARAAARQARAKALARQLGVAA-OH [MMI-0100], the activity at 100 µM in assay [1] came to 128%; in assay [2] it was 98%.

As for “HRRIKAWLKKIKALARQLGVAA (Mammalian) [MMI-0500]”, the “% activity” value in assay [3] is reported as 53%; in assay [1] (100 μM), 2%; in assay [4], 6%; in assay [5] it was 0%; in assay [6] it was 133%; in assay [7] it was 3%. The “% activity” value came to 9% in assay [8]; 35% in [9]; 3% in assay [10]; 3% in assay [11]; 30% in [12]; 2% in [2] (100 μM). Besides, the “% activity” value in [13] and in [14] was 30% throughout.

Take “YARAAARQARAKALNRQLGVA (Mammalian) [MMI-0200]”: the “% activity” value was determined as 108% in assay [3]; 101% in assay [4]; 97% in [5]; 129% in assay [6]; 84% in [7]; 88% in assay [8]. For the same substance, the “% activity” value came out at 108% in assay [9]; 100% in [10]; 72% in assay [11]; 110% in [12]; 98% in [13]; 118% in assay [14].
